Values of other authors as cited in paper PMC8296306.

Key:
[1] = target: Cxcl2/MIP2 (Mus musculus) (UniProt P10889)
Cxcl1/KC (Mus musculus) = Cxcl1/KC (Mus musculus) (UniProt P12850)

Substance | Kd [1] | Kd (Cxcl1/KC (Mus musculus))
Cxcl2/MIP2 (from UniProt P10889) | 15 µM | –
Cxcl1/KC (from UniProt P12850) | – | 35 µM
